{"source": "patent US20030082146A1", "key": {"[1]": {"target": "anti-His single-chain antibody (scFv) artificial receptor displayed on 293.HissFv.rec cells", "experiment": "cell-based or functional assay"}, "[2]": {"target": "wild-type Ad5 fiber (adenovirus serotype 5 (Ad5)) (UniProt P11818)", "experiment": "antibody-mediated virus capture on 9E10-coated plates, read out by GFP expression in 293.HissFv.rec cells (FACS)"}, "[3]": {"target": "TSFLCmychis knobless fiber protein (adenovirus serotype 5 (Ad5); Moloney Murine Leukemia Virus) (UniProt P11818)", "experiment": "antibody-mediated virus capture on 9E10-coated plates, read out by GFP expression in 293.HissFv.rec cells (FACS)"}}}
{"substance": "TSFLCmychis knobless fiber protein (from UniProt P11818 1-403; P03385 514-553)", "values": [{"measurement": "gene transfer (EGFP expression) by AdGFP-TSFLCmychis into 293.HissFv.rec cells in the presence of the anti-fiber knob antibody", "setting": "[1]", "result": "> 10", "unit": "%"}]}
{"substance": "anti-Myc MoAb 9E10 (antibody)", "values": [{"measurement": "percent functional virus bound (relative to binding to 1D6.14)", "setting": "[2]", "result": 0.2, "unit": "%"}, {"measurement": "percent functional virus bound (relative to binding to 1D6.14)", "setting": "[3]", "result": 2.3, "unit": "%"}]}
